Source: patent US20250304636

Chain of DAP12 mutant P17 (chain, as listed by the source mutant): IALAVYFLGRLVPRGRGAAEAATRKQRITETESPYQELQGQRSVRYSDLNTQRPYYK
Chain of DAP12 mutant P23 (chain, as listed by the source mutant): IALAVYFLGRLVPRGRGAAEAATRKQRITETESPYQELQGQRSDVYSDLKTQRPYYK
Chain of DAP12 mutant P19 (chain, as listed by the source mutant): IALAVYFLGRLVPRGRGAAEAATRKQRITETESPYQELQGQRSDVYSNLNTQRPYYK

Syk
tyrosine phosphorylation of Syk (IP of Syk, western blot with pan-phospho-tyrosine antibody 4G10) (DAP12 mutant P17): P17, P19 and P23 were able to induce tyrosine phosphorylation of Syk | tyrosine phosphorylation of Syk (IP of Syk, western blot with pan-phospho-tyrosine antibody 4G10) (DAP12 mutant P19): P17, P19 and P23 were able to induce tyrosine phosphorylation of Syk | tyrosine phosphorylation of Syk (IP of Syk, western blot with pan-phospho-tyrosine antibody 4G10) (DAP12 mutant P23): P17, P19 and P23 were able to induce tyrosine phosphorylation of Syk
